Assay results: the nanobody polyreactivity screen of Harvey et al. (2022)

test: yeast display, Sf9 membrane polyspecificity reagent, FACS + sequencing; frameworks hold sequencing errors
Summary of the method: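 Sorting gates, low and high (top ~1%), were placed on anti-HA fluorescence to track expression and on streptavidin fluorescence to track reagent binding. A clone's polyreactivity label is taken from the gate it came out of. The reagent was 10% biotinylated, detergent-solubilized Sf9 membrane, applied for 1 hour at 4 °C to galactose-induced yeast display cells.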

| Sequence | polyreactivity (PSR sort gate) |
| --- | --- |
| QVQQQESGGGLVKAGGSLRLSCAASGNNSPRDAMGWYRQAPGEERDLVASNAYSAITYYADGVKGRYTISRDNAKNTVYLQMNSLKPEDTEVYYCAVYQFTYPVFPAYWGQGTQVTVSS | low polyreactivity |
| QVQQQESGGGLVQAGGSLRLSCAASGTIFQLTVMGRYRQAPGNERELVASIDYGGNTNYADSVKGRFTISRDNAKNTVYLQMNILKPEDTAVYYCPASSDSWTTHPYWGQGTQVTLSS | low polyreactivity |
| QVQQQESGGGLVQAGGSLRLSCAASGTIFQLTVMGRYRQAPGQERELVASIDYGGNTNYADSVNGRFTISRDNAKNTVYLQMNSLKPEDTAVYYCAASSDSWTTHPYWGQGTQVTVSS | low polyreactivity |
| QVQQQESGGGLVQAGGSQRLSCAASGTSLNSLCMGWYRQAPGKRREFVASITWGTTTNYAESVKGRFTISRDNANNTVYPQMNSLKPEDTAVYYCAAPPFGDSSYHYWGQGTQVTVSS | low polyreactivity |
| QVQQQESGGGLVQEGGSLRLSCAASGNISPPADMGWYRQAPGKERELVASIGTGGTTNYADSVKGRFTISRDNAKNTVYLQMNSLKPDDTAVFYCAAVRYEYNPYDYWGQGTQVTVSS | low polyreactivity |
| QVQREESGGGLVQAGGSLRLSCAASGFIFDNNAMGWYRQAPGKERELVAAISSADSTNYADSEKGRFSISRDNAKNTVYLQMNSLKPEDTAVYSCNRSQGGEKGWFHYDSWGQGTQVTVSS | low polyreactivity |
| QVQREESGGGLVQAGGSLRLSCAASGITFVLNVMGWYRQAPGKETELLAAISASGGRTYYADSVKGRFTISRDNAKNTVYLQMNSLKPEDTAVYYCNAVLPRYTFRSGVFEYDWGQGTQVTVSS | high polyreactivity |
| QVQREESGGGLVQAGGSLRLSCAASGRIMNINAMGWYRPATGKERERVAAITWRGGRTFYADSVKGRFTISRDNAKNTVYLQMNSLKAEDTAVYYCAASSNSWYPTGYYWGQGTQVTVSS | high polyreactivity |
| QVQREESGGGLVQAGGSLRLSCAASGSIFVGNAMGWYRQAPGKESELVAAITASGTSTYYADSVKGRFTISRDNAKNTVYLQMNSLKPEDTAVYYCNAVQLVYDQYRYDYWGQGTQVTVSS | high polyreactivity |
| QVQRVDSGGGLVQAGGRLRLSCAASGLNFYLYAMGLYRQAPRKEREFVAAITTSGGSTHYADSVKGRFTISRDNAKNTVYLQMNSLKPEDTAVYYCAADDYFHGPGMEFDFLGQGTQVTVSS | low polyreactivity |
| QVQRVDSGGGLVQAGGSLRLSCAASGITFTLYDMGWYRQAPGKERELVASITSDGSTDYADSVKGRFTISRDNAKNTVYLQMISLKPEDTAVYYCNARVTYSWYRFGRSGDDSWGQGTQVTVSS | low polyreactivity |
| QVQRVDSGGGLVQAGGSLRLSCAASGRILRDYDRGWYRQAPGKDRELVAAINWSDGSTYYADSVKGRFTISRDNAKNTVYLQMNSLKPEDTAVYYCAASRWRPLERGTTWLHDYWGQGTQVTVSS | low polyreactivity |
| QVQRVDSGGGLVQAGGSLRLSCAASGSIFEWYDMVWYRQAPGTERELVAAITTGGITNYSDSVKARFTISRDNAKNTVYLQMNSLKPEDTAVYYCNADFTVEFDYWGQGTQVTVSS | low polyreactivity |
| QVQRVESGGGIVQAGGSLRLSCAASGFIFRRYAMGWYRQAPGKERELVAAISSSGGRTTYADSVKGRFTISRDNAKNTVYLQMNSLKPEDTAVYYFNADLWPGNHDGYWGQGTQVSVSS | low polyreactivity |
| QVQRVESGGGLVHAAGSRRLSCAASGSIFWPYAMGWYRLAPGKEREFVAPISSSGSRTHYADSVKGRFTISRDTAKNTVYLQMNSLKPEDTAVYYCATDSRVITWYGGVEFDYWGQGTQVTVSS | low polyreactivity |
| QVQRVESGGGLVQAGGRLRLICAAAGYTFDYYAMGWYRQAPGKERELVAAISRSGTRTYYADSVKGRFTISRDNAKNTVYLQMYSLKPEVNAVYYLKKAYYLYAGDYWGQGTQVTVSS | high polyreactivity |

| Sequence | polyreactivity (PSR sort gate) |
| --- | --- |
| QVQRVESGGGLVQAGGRLRLSCAASGRTFETNAMGWYRQAPGKERELVAAISRSGGSTRYADSVKGRFTISRDNAKNTVYLQMNSLKPEDTAVYYCAVRVGLGGGYGGQGTQVTVSS | high polyreactivity |
| QVQRVESGGGLVQAGGRLRLSCAASGSIFASYDMGWYRQSRGKERELVARITFNAGSTYYADSVKGRFTISRDNAKNTVYLQMNSLKPEDTAVYYCIADYPWEYDYWGEGTQVTVSS | low polyreactivity |
| QVQRVESGGGLVQAGGRLRLSCAASGSIFFSKAMGWYRPAPGKERELVAGIRSGGITNYADSVKGRFTISRDNAKNTVSLQMNSLKPEDTAVYYCAKLKDHGRYAYAFDYWGQGTQVTVSS | low polyreactivity |
| QVQRVESGGGLVQAGGRLRLSCAASGSTFLYNAMGWYRQAPGKERELVATISSGGGSTNYADSVKGRFTNSRDNAKNTVYLPMNSLKPEDTAVYYCAVEGYDSYKDDYWGQGTQVTVSS | low polyreactivity |
| QVQRVESGGGLVQAGGRLRLSSAASGSIFGRYGMGWYRQAPGKDRELVAAITSGTRRNYADSVKGRFTISRDNAKNTVYLQMNSLKPEDTAVYYCNAVRLRGNYEYGYWGLGTQVTVSS | low polyreactivity |
| QVQRVESGGGLVQAGGRLRVSCAASGRTFYIYAMGWYRQAPGKERELVADITSGGSTYYADSVKGRFTISRDNAKNTVYLQMNCLKPEDTAVYYCNAGPHWFYRYGRYDYWGQGTQVTVSS | low polyreactivity |
| QVQRVESGGGLVQAGGSLRLSCAASGFIFYFYAMRWYRQAPGNERELVAAITWSGTDTYYADSVKGRFTISRDNAKNTVYLQMNSLKPEDTAVYYCARSEHSLVSIKVDYWGQGTQVTVSS | low polyreactivity |
| QVQRVESGGGLVQAGGSLRLSCAASGFTFSLYGMGWYRPARGKGRELVAAIRSGGSTNYADSVKGRYTISRDNAKNTVYLQMNSLKPEDTAVYYCATDIHSGHNNRDKHDYDYWGQGTQETVSS | low polyreactivity |
| QVQRVESGGGLVQAGGSLRLSCAASGIIFALYAMGWYRQAPGKERELVAAISTSGGRTYYADSVKGRFTISRDNAKNTVYFQMNSLKPEDTAVYYCAAGYPYWYHSRLAFDYWGQGTQVTVSS | high polyreactivity |
| QVQRVESGGGLVQAGGSLRLSCAASGITFKYYGMGWYRRAPGKERELVAAITRSGGSTSYADSVKGRFTISRDNAKNTVYLQMHSLKPEDTAVYYCAAERYVLTWLGIERYYWGQGTQVTVSS | high polyreactivity |
| QVQRVESGGGLVQAGGSLRLSCAASGKIFGQYAMGRYRQAPGKEREFVAAITWSGGSTYYADSVKGRFTISRDNAKNTVYLQMNSLKPEDTAVYYCAADYGKTHRYDYDYWGQGTQVTVSS | low polyreactivity |
| QVQRVESGGGLVQAGGSLRLSCAASGLTFEYNAMGWYRQAPGKEREFVATISNGGITSYADSVKGRFTISRDNAKNTVYLQMNSLKPEDTGVYYCAASYADSPTTDQLWLEYDSWGQGTQVTVSS | low polyreactivity |
| QVQRVESGGGLVQAGGSLRLSCAASGLTFRYYAVGWYRQAPGKERELVAAITSNGGRTYYADSVKGRFTISRDNAKNTVYLQMNSLKPEDTAVYYCAAVYLYYGGVDYWGQGTQVTVSS | high polyreactivity |
| QVQRVESGGGLVQAGGSLRLSCAASGLTFVYYAMGWYRQAPGKERELVAAISESGTSTYYADSVKGRFTISRDNAKNTVYLQMNSLKPEDTAVYYCAAKDSYYEMDYWGQGTQVTVSS | high polyreactivity |
| QVQRVESGGGLVQAGGSLRLSCAASGRIFQIYAMGWYRQAPGKERELVAAIRSGSNTNYADSVKGRFTISRDNAKNTVYLQMNSLKPEDTAVYYCNALYTSLRKDNYWGQGTQVTVST | low polyreactivity |
| QVQRVESGGGLVQAGGSLRLSCAASGRIFWYYAMGWYRQAPGTERQLVAAITSGGRTNFADSVKGRFTISSDNAKNSVYLQMNSLKPEDTAVYYCAAGYYNYLYRLRDQDFDYWGQGTQVTVSS | high polyreactivity |
